The subject of data set [1] is T1, SapI M1 methylase (Saccharopolyspora sp.).
T1 sequence: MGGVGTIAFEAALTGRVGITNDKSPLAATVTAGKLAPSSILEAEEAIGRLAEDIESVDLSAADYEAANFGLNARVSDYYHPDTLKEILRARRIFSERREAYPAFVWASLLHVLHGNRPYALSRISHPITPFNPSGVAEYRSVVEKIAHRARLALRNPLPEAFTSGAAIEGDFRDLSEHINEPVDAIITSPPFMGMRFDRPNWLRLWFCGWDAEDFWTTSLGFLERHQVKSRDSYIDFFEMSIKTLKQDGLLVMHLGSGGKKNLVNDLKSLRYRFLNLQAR
The experiment in a line: cell_activity. Conditions: M1 and M2 co-expressed in E. coli from pACYC184-SapIM1-M2; SapI site protection.

The test system of data set [2] is T2, SapI M2 methylase (Saccharopolyspora sp.).
T2 sequence: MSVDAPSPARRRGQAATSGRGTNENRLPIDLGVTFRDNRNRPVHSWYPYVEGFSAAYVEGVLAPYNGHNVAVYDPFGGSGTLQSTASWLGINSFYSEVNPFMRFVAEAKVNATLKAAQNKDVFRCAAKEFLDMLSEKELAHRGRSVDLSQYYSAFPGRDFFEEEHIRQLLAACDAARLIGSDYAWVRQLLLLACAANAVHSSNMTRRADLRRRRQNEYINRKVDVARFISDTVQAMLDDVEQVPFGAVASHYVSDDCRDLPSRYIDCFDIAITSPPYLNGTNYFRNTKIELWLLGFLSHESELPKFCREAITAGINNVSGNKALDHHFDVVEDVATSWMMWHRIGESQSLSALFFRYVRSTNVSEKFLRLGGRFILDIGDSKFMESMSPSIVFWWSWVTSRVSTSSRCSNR
The experiment in a line: cell_activity. The following applies: M1 and M2 co-expressed in E. coli from pACYC184-SapIM1-M2; SapI site protection.

Data set [3] concerns T3, SapI restriction endonuclease (recombinant) (Saccharopolyspora sp.).
T3 sequence: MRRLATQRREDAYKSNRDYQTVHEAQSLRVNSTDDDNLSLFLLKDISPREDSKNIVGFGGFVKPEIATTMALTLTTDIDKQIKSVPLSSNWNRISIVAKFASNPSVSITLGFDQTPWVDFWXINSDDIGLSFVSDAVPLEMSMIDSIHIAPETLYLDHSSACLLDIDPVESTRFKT
Kind of data set: cleavage_in_vitro. The following applies: supernatant of lysate assayed on lambda DNA; purified enzyme also assayed on lambda DNA.

Turning to pUC19 plasmid DNA (one SapI site), the activity (% of DNA resistant to SapI) in data set [1] and in data set [2] was 70 in each case.

As to lambda DNA, the activity (units per g wet cells) in data set [3] was found to be 20000.

The record behind these values is patent US5663067.
